Experiments:
[1] = target: DnaK, wild type, with a C-terminal hexahistidine tag (E. coli, UniProt P0A6Y8 1-638); assay: SPR
DnaK V389A = DnaK V389A (E. coli, UniProt P0A6Y8 1-638, V389A); assay: SPR

- binding result [1]: binds
- binding result (DnaK V389A): binds
B1: DnaJ with the biotin carboxyl carrier protein (BCCP) fused at the C-terminus (natural protein, E. coli, UniProt P08622 1-376, looked up)
chain: MAKQDYYEILGVSKTAEEREIRKAYKRLAMKYHPDRNQGDKEAEAKFKEIKEAYEVLTDSQKRAAYDQYGHAAFEQGGMGGGGFGGGADFSDIFGDVFGDIFGGGRGRQRAARGADLRYNMELTLEEAVRGVTKEIRIPTLEECDVCHGSGAKPGTQPQTCPTCHGSGQVQMRQGFFAVQQTCPHCQGRGTLIKDPCNKCHGHGRVERSKTLSVKIPAGVDTGDRIRLAGEGEAGEHGAPAGDLYVQVQVKQHPIFEREGNNLYCEVPINFAMAALGGEIEVPTLDGRVKLKVPGETQTGKLFRMRGKGVKSVRGGAQGDLLCRVVVETPVGLNERQKQLLQELQESFGGPTGEHNSPRSKSFFDGVKKFFDDLTR

Source: article PMC5737734 (Journal of molecular biology, 2011)
